Experimental data published in US20180298083A1.

What was measured:
S365A (HIV-1) = assay: gp120 capture ELISA
R469A (HIV-1) = assay: gp120 capture ELISA
T283A (HIV-1) = assay: gp120 capture ELISA
E370A (HIV-1) = assay: gp120 capture ELISA
R476A (HIV-1) = assay: gp120 capture ELISA
G366A (HIV-1) = assay: gp120 capture ELISA
N197T (HIV-1) = assay: gp120 capture ELISA
D457A (HIV-1) = assay: gp120 capture ELISA
V372A (HIV-1) = assay: gp120 capture ELISA
D474A (HIV-1) = assay: gp120 capture ELISA
I371A (HIV-1) = assay: gp120 capture ELISA
M475A (HIV-1) = assay: gp120 capture ELISA
K282A (HIV-1) = assay: gp120 capture ELISA
D167N (HIV-1) = assay: gp120 capture ELISA
I467A (HIV-1) = assay: gp120 capture ELISA
P369A (HIV-1) = assay: gp120 capture ELISA
N262A (HIV-1) = assay: gp120 capture ELISA
M373A (HIV-1) = assay: gp120 capture ELISA
N332A (HIV-1) = assay: gp120 capture ELISA
N280A (HIV-1) = assay: gp120 capture ELISA
G471A (HIV-1) = assay: gp120 capture ELISA
G367A (HIV-1) = assay: gp120 capture ELISA
D368A (HIV-1) = assay: gp120 capture ELISA
G473A (HIV-1) = assay: gp120 capture ELISA
G472A (HIV-1) = assay: gp120 capture ELISA
D279A (HIV-1) = assay: gp120 capture ELISA
[1] = target: HIV-1 YU2 gp120 (HIV-1 strain YU2) (UniProt P35961); assay: competition ELISA on gp120 YU2, unlabelled CD4-Ig against CD4Ig-biotin

In the case of “CD4-Ig (from UniProt P01730 26-203) (Fc fusion)”, the Binding affinity relative to WT (%) (S365A (HIV-1)) is reported as 34%, the Binding affinity relative to WT (%) (R469A (HIV-1)) is reported as 7% and the Binding affinity relative to WT (%) (T283A (HIV-1)) is reported as 55%. The Binding affinity relative to WT (%) (E370A (HIV-1)) was 5%, the Binding affinity relative to WT (%) (R476A (HIV-1)) was 79% and the Binding affinity relative to WT (%) (G366A (HIV-1)) was 7%. The Binding affinity relative to WT (%) (N197T (HIV-1)) was 25%, the Binding affinity relative to WT (%) (D457A (HIV-1)) was 3% and the Binding affinity relative to WT (%) (V372A (HIV-1)) was 73%. For the same substance, the Binding affinity relative to WT (%) (D474A (HIV-1)) was 45%, the Binding affinity relative to WT (%) (I371A (HIV-1)) was 12% and the Binding affinity relative to WT (%) (M475A (HIV-1)) was 117%. For the same substance, the Binding affinity relative to WT (%) (K282A (HIV-1)) was 53%, the Binding affinity relative to WT (%) (D167N (HIV-1)) was 58% and the Binding affinity relative to WT (%) (I467A (HIV-1)) was 115%. The Binding affinity relative to WT (%) (P369A (HIV-1)) was 54%, the Binding affinity relative to WT (%) (N262A (HIV-1)) was 2% and the Binding affinity relative to WT (%) (M373A (HIV-1)) was 91%. For the same substance, the Binding affinity relative to WT (%) (N332A (HIV-1)) was 57%, the Binding affinity relative to WT (%) (N280A (HIV-1)) was 75% and the Binding affinity relative to WT (%) (G471A (HIV-1)) was 141%. It also gave a Binding affinity relative to WT (%) (G367A (HIV-1)) of 3%, a Binding affinity relative to WT (%) (D368A (HIV-1)) of 5% and a Binding affinity relative to WT (%) (G473A (HIV-1)) of 0%. It also gave a Binding affinity relative to WT (%) (G472A (HIV-1)) of 2%, a Binding affinity relative to WT (%) (D279A (HIV-1)) of 49% and an IC50 (read off the curve) [1] of 0.06 µg/mL.
